In test [1] the target is D3H44 light chain Q124E_T180E (Kabat), N-terminal HA or FLAG tag. Description: LCCA co-expression, competing light chain m36, L1:L2 DNA 1:3 normalized to 1:1, SPR tag read-out.
For test [2] the target is unchanged. As to the kind of experiment: LCCA co-expression, competing light chain m36, L1:L2 DNA 1:9 normalized to 1:1, SPR tag read-out.
Test [3] deals with D3H44 light chain S131K (Kabat), N-terminal HA or FLAG tag. As to the kind of experiment: LCCA co-expression, competing light chain m37, L1:L2 DNA 1:3 normalized to 1:1, SPR tag read-out.
The target is the same in test [4]. Description: LCCA co-expression, competing light chain m37, L1:L2 DNA 1:9 normalized to 1:1, SPR tag read-out.
In test [5] the target is D3H44 light chain S121K_V133G_N137K_S174R_S176R (Kabat), N-terminal HA or FLAG tag. Description: LCCA co-expression, competing light chain m30, L1:L2 DNA 1:3 normalized to 1:1, SPR tag read-out.
The target in test [6] is D3H44 light chain V133G_N137K_S174R_S176R (Kabat), N-terminal HA or FLAG tag. Described as above.
Test [7] has as its target D3H44 light chain Q124E_V133G_S176D_T178E_T180E (Kabat), N-terminal HA or FLAG tag. Description: LCCA co-expression, competing light chain m24, L1:L2 DNA 1:3 normalized to 1:1, SPR tag read-out.
Test [8] has as its target D3H44 light chain Q124K_V133G_S176R_T178K (Kabat), N-terminal HA or FLAG tag. As to the kind of experiment: LCCA co-expression, competing light chain m25, L1:L2 DNA 1:3 normalized to 1:1, SPR tag read-out.
Test [9] shares this target. As to the kind of experiment: LCCA co-expression, competing light chain m23, L1:L2 DNA 1:3 normalized to 1:1, SPR tag read-out.
The target is the same in test [10]. As to the kind of experiment: LCCA co-expression, competing light chain m26, L1:L2 DNA 1:3 normalized to 1:1, SPR tag read-out.
For test [11], the target named is D3H44 light chain V133G_S176D_T178D_T180E (Kabat), N-terminal HA or FLAG tag. As to the kind of experiment: LCCA co-expression, competing light chain m24, L1:L2 DNA 1:3 normalized to 1:1, SPR tag read-out.
The target in test [12] is D3H44 light chain Q124R_Q160K_T178R (Kabat) with N-terminal HA or FLAG tag. As to the kind of experiment: LCCA, SPR read-out of light-chain tags; light-chain DNA 1:3 normalized to 1:1; competing light chain m22.
In test [13] the target is D3H44 light chain Q124E_Q160E_T180E (Kabat) with N-terminal HA or FLAG tag. As to the kind of experiment: LCCA, SPR read-out of light-chain tags; light-chain DNA 1:3 normalized to 1:1; competing light chain m20.
The target of test [14] is D3H44 light chain Q124E_S131T_T178F_T180E (Kabat) with N-terminal HA or FLAG tag. The test is described as above.
Test [15] deals with D3H44 light chain Q124E_Q160E_T180E (Kabat) with N-terminal HA or FLAG tag. As to the kind of experiment: LCCA, SPR read-out of light-chain tags; light-chain DNA 1:3 normalized to 1:1; competing light chain m18.
Test [16] concerns the target D3H44 light chain Q124E_T180E (Kabat) with N-terminal HA or FLAG tag. The test is described as above.
Test [17] concerns the target D3H44 light chain Q124K_T178R (Kabat) with N-terminal HA or FLAG tag. Description: LCCA, SPR read-out of light-chain tags; light-chain DNA 1:3 normalized to 1:1; competing light chain m17.
Test [18] concerns the target D3H44 light chain T178R (Kabat) with N-terminal HA or FLAG tag. Described as above.
The target of test [19] is D3H44 light chain Q124R_Q160K_T178R (Kabat) with N-terminal HA or FLAG tag. The description is as above.
Test [20] concerns the target D3H44 light chain Q124E_Q160E_T180E (Kabat) with N-terminal HA or FLAG tag. Description: LCCA, SPR read-out of light-chain tags; light-chain DNA 1:3 normalized to 1:1; competing light chain m16.
Test [21] deals with D3H44 light chain T178R (Kabat) with N-terminal HA or FLAG tag. As to the kind of experiment: LCCA, SPR read-out of light-chain tags; light-chain DNA 1:3 normalized to 1:1; competing light chain m19.
The target in test [22] is tissue factor (TF) antigen (UniProt P13726). Description: SPR (ProteOn XPR36), Fab captured on anti-penta-His surface, TF as analyte; reference wild-type D3H44 Fab; batch C.
Test [23] has the same target. As to the kind of experiment: SPR (ProteOn XPR36), Fab captured on anti-penta-His surface, TF as analyte, 1:1 fit; batch C (stored about 2 months at 4 C).
The target is the same in test [24]. As to the kind of experiment: SPR (ProteOn), Fab captured on anti-penta-His, TF analyte, 1:1 fit; * estimated from a Fab differing only in the L chain tag.
Test [25] shares this target. As to the kind of experiment: SPR KD against wild-type D3H44 Fab; * estimated value (estimated wild-type KD […]).
For test [26] the target is unchanged. Description: SPR KD against wild-type D3H44 Fab (reference KD 0.157 nM).
The target is the same in test [27]. As to the kind of experiment: SPR (ProteOn), Fab captured on anti-penta-His, TF analyte, 1:1 fit.
Test [28] has the same target. As to the kind of experiment: SPR (ProteOn XPR36), Fab captured by His tag on anti-penta-His surface, TF injected as analyte, 1:1 fit; batch C (+).
Test [29] has the same target. Description: SPR (ProteOn XPR36), Fab captured by His tag on anti-penta-His surface, TF injected as analyte; against wild-type D3H44 Fab; batch C (+).

We go through 21 substances from US11306156.

Turning to “D3H44 Fab heavy chain K145T_Q179E (Kabat), C-terminal ABD2-His6 tag”, the H1L1:H1L2 normalized median ratio in [1] is 58 of 100; in test [2], 25 of 100; in [3], 42 of 100; in [4], 75 of 100. Moreover, the H1L1:H1L2 normalized median scalar value ln(r1/f1) in test [3] was -0.34; in test [4], 1.1.

For “D3H44 Fab heavy chain L124E_A125S_H172T_K228D (Kabat), C-terminal ABD2-His6 tag”, in [5], the H1L1:H1L2 normalized median ratio was 27 of 100 and the H1L1:H1L2 normalized median scalar value ln(r1/f1) is -0.97.

As to “D3H44 Fab heavy chain L124E_H172T (Kabat), C-terminal ABD2-His6 tag”, in [6], the H1L1:H1L2 normalized median ratio is 53 of 100 and the H1L1:H1L2 normalized median scalar value ln(r1/f1) came to 0.12.

For the substance “D3H44 Fab heavy chain L124E_L143D_K145M (Kabat), C-terminal ABD2-His6 tag”, the values for the H1L1:H1L2 normalized median ratio in test [7] and in [8] were 17 of 100 and 83 of 100, respectively. Also, the H1L1:H1L2 normalized median scalar value ln(r1/f1) in test [8] came out at 1.59.

As for “D3H44 Fab heavy chain L124E_L143D_K145T (Kabat), C-terminal ABD2-His6 tag”, the H1L1:H1L2 normalized median ratio in [9] was 81 of 100; in test [7] it was 21 of 100; in test [8], 79 of 100. Also, the H1L1:H1L2 normalized median scalar value ln(r1/f1) in [9] is 1.44; in [8] it was 1.31.

On to “D3H44 Fab heavy chain L124E_L143E_K145M (Kabat), C-terminal ABD2-His6 tag”, for which the H1L1:H1L2 normalized median ratio in test [9] is 88 of 100; in test [10], 63 of 100; in test [11] it was 37 of 100. Moreover, the H1L1:H1L2 normalized median scalar value ln(r1/f1) stood at 1.95 in test [9] and 0.55 in test [10].

Consider “D3H44 Fab heavy chain L124E_L143E_K145T (Kabat), C-terminal ABD2-His6 tag”, for which the H1L1:H1L2 normalized median ratio was 89 of 100 in [9], 62 of 100 in test [10] and 38 of 100 in test [11]. Further, the H1L1:H1L2 normalized median scalar value ln(r1/f1) in test [9] is 2.08; in [10] it was 0.43.

For “D3H44 Fab heavy chain L124R_A125R_H172R (Kabat), C-terminal ABD2-His6 tag”, the H2L2:H2L1 normalized median ratio in [5] was 5 of 100.

With “D3H44 Fab heavy chain L124R_D146N_Q179K (Kabat), C-terminal ABD2-His6 tag”, the H2L2:H2L1 normalized median ratio in test [7] was 84 of 100; in test [8] it was 16 of 100.

Take “D3H44 Fab heavy chain L124R_H172R (Kabat), C-terminal ABD2-His6 tag”: the H2L2:H2L1 normalized median ratio in [6] is 8 of 100.

In the case of “D3H44 Fab heavy chain L124R_S186K (Kabat), C-terminal ABD2-His6 tag”, the results for the H2L2:H2L1 normalized median ratio in test [9], in [10] and in test [11] were 24 of 100, 7 of 100 and 93 of 100, respectively.

For the substance “D3H44 Fab heavy chain S186K (Kabat) with C-terminal ABD2-His6 tag”, the H2L2:H2L1 normalized median ratio in test [12] was 4%; in test [13] it was 81%; in [14], 96%; in test [15] it was 91%; in test [16] it was 96%; in [17] it was 17%. Also, the H2L2:H2L1 normalized median ratio in [18] stood at 9%; in test [19], 19%; in test [20], 83%; in test [21] it was 4%.

Regarding “D3H44 Fab heavy chain S186K (Kabat), C-terminal ABD2-His6 tag”, the H2L2:H2L1 normalized median ratio in test [1] is 98 of 100; in [2], 93 of 100; in test [3], 2 of 100; in test [4], 7 of 100.

By Kd is commonly meant a measure of binding affinity in units of concentration. In test [22], “D3H44 Fab heterodimer H1 S186K / L1 S131E” gave a Change in median values of KD of h1l1 Fab heterodimer compared to wild type (-(log(KD design)-log(KD wt))) of 0.05. This substance also came in with a dissociation constant Kd in test [23] of 0.14 nM.

Turning to “D3H44 Fab heterodimer H1 S188L_V190Y / L1 V133S”, the Change in median values of KD of h1l1 Fab heterodimer compared to wild type (-(log(KD design)-log(KD wt))) in test [22] turned out to be 0.2. The same substance gave a Kd in test [23] of 0.1 nM.

For the substance “D3H44 Fab heterodimer, H: L143E_K145T_Q179D, L: Q124R_Q160K_T178R (H1L1 Fab of LCCA set 9623)”, the Kd in test [24] is 0.06 nM. Moreover, the Change in KD with respect to wild type (-(log(KD design) - log(KD wt))) in test [25] was 0.39.

Regarding “D3H44 Fab heterodimer, H: L143E_K145T_Q179D, L: Q124R_T178K (H1L1 Fab of LCCA set 9629)”, the Kd in test [24] is 0.12 nM. Further, in test [25], the Change in KD with respect to wild type (-(log(KD design) - log(KD wt))) was 0.12.

Turning to “D3H44 Fab heterodimer, H: L143E_K145T_Q179E, L: Q124R_T178R (H1L1 Fab of LCCA sets 9663, 9666, 9667, 9671, 9675, 9679 and 9682)”, the Kd in test [24] and in [27] was 0.27 nM throughout. In addition, the Change in KD with respect to wild type (-(log(KD design) - log(KD wt))) in test [26] and in test [25] was -0.23 throughout.

Consider “D3H44 H1L1 Fab heterodimer of LCCA Set # 9648 (H1 L143E_K145T_Q179E, L1 Q124K_T178R)”, for which the Kd in test [28] is 0.14 nM. The change in median KD compared to wild type, -(log(KD design)-log(KD wt)) in [29] amounted to 0.05 log.

“D3H44 H1L1 Fab heterodimer of LCCA Set # 9982 (H1 S186K, L1 S131E)”: the Kd in test [28] came out at 0.14 nM. Besides, in [29], the change in median KD compared to wild type, -(log(KD design)-log(KD wt)) was 0.05 log.

In test [28], “D3H44 H1L1 Fab heterodimer of LCCA Sets # 9888 and 9887 (H1 S186R, L1 Q124E_T178E)” yielded a Kd of 0.14 nM. Also, in test [29], the change in median KD compared to wild type, -(log(KD design)-log(KD wt)) is 0.06 log.
